Results published in patent US20140341881A1 (DERMADIS, published 2014).
Residue numbers refer to the chain shown, from its start.

T1: human kallikrein 14 (hK14) (human, UniProt Q9P0G3 25-251, limits assumed)
T1 construct: range counted on GenBank AAK48524 (printed), which may differ from the UniProt numbering; also called recombinant hK14
T1 sequence (looked up): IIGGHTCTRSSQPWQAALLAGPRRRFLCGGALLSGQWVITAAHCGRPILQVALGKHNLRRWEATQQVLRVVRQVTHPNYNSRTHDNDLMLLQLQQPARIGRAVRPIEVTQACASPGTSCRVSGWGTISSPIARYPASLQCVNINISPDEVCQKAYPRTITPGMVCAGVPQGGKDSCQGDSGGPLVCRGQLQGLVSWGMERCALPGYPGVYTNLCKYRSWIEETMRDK

T2: human kallikrein 8 (hK8) (human, UniProt O60259 33-260)
T2 sequence (looked up): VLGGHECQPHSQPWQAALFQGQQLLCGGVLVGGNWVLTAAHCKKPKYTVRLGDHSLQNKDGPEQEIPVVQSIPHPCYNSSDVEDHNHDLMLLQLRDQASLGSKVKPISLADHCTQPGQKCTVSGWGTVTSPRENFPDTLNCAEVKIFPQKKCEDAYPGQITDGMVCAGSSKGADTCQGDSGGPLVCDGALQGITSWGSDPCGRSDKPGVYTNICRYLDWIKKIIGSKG

T3: human kallikrein 5 (hK5) (human, UniProt Q9Y337 67-293, limits assumed)
T3 sequence (looked up): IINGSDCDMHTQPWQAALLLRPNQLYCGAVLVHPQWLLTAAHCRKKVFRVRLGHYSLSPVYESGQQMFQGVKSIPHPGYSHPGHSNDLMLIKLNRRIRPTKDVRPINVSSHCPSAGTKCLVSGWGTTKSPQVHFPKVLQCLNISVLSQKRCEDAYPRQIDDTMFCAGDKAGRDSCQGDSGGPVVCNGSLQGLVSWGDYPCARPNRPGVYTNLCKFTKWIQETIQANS

T4: human neutrophil elastase (HNE) (human, UniProt P08246 30-247, limits assumed)
T4 sequence (looked up): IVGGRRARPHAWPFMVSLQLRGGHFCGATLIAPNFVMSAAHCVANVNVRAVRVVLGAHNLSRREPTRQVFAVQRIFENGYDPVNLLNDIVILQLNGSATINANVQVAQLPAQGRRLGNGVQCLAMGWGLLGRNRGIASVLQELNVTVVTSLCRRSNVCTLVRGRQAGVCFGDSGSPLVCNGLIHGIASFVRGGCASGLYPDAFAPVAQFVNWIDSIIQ

B1: ACTC11 (other)
chain: MRGSHHHHHHSRHPNSPLDEENLTQENQDRGTHVDLGLASANVDFAFSLYKQLVLKAPDKNVIFSPLSISTALAFLSLGAHNTTLTEILKGLKFNLTETSEAEIHQSFQHLLRTLNQSSDELQLSMGNAMFVKEQLSLLDRFTEDAKRLYGSEAFATDFQDSAAAKKLINDYVKNGTRGKITDLIKDLDSQTMMVLVNYIFFKAKWEMPFDPQDTHQSRFYLSKKKWVMVPMMSLHHLTIPYFRDEELSCTVVELKYTGNASALFILPDQDKMEEVEAMLLPETLKRWRDSLEFREIGELYLPKFSISRDYNLNDILLQLGIEEAFTSKADLSGITGARNLAVSQVVHKAVLDVFEEGTEASAATAVKITLRQTNVETRTIVRFNRPFLMIIVPTDTQNIFFMSKVTNPKQA
notes: also called rACTC11
B2: ACTG1v (other)
chain: B1 chain with K368V, I369G, T370S, Q373S, T374A, N375L
B3: ACTC11g (other)
chain: B1 chain with L371G
B4: ACTG1 (other)
chain: B1 chain with I369G, T370S, Q373S, T374A, N375L
B5: ACTC11D (other)
chain: B1 chain with V376D
notes: also called rACTC11D
B6: AATC11g (other)
chain: MRGSHHHHHHGSDDPQGDAAQKTDTSHHDQDHPTFNKITPNLAEFAFSLYRQLAHQSNSTNIFFSPVSIATAFAMLSLGTKADTHDEILEGLNFNLTEIPEAQIHEGFQELLRTLNQPDSQLQLTTGNGLFLSEGLKLVDKFLEDVKKLYHSEAFTVNFGDTEEAKKQINDYVEKGTQGKIVDLVKELDRDTVFALVNYIFFKGKWERPFEVKDTEEEDFHVDQATTVKVPMMKRLGMFNIQHCKKLSSWVLLMKYLGNATAIFFLPDEGKLQHLENELTHDIITKFLENEDRRSASLHLPKLSITGTYDLKSVLGQLGITKVFSNGADLSGVTEEAPLKLSKAVHKAVLTIDEKGTEAAGAMFLEAIGRQTNPEVKFNKPFVFLMIEQNTKSPLFMGKVVNPTQK
B7: ACTE5 (other)
chain: B1 chain with T370N, L371Q, Q373S, T374S, N375L
B8: ACTF11 (other)
chain: B1 chain with I369Q, T370R, Q373D, T374A, N375L
B9: ACTG1g (other)
chain: B1 chain with I369G, T370S, Q373G, T374A, N375L
B10: AATG1g (other, human)
chain: HHHHHHEDPQGDAAQKTDTSHHDQDHPTFNKITPNLAEFAFSLYRQLAHQSNSTNIFFSPVSIATAFAMLSLGTKADTHDEILEGLNFNLTEIPEAQIHEGFQELLRTLNQPDSQLQLTTGNGLFLSEGLKLVDKFLEDVKKLYHSEAFTVNFGDTEEAKKQINDYVEKGTQGKIVDLVKELDRDTVFALVNYIFFKGKWERPFEVKDTEEEDFHVDQVTTVKVPMMKRLGMFNIQHCKKLSSWVLLMKYLGNATAIFFLPDEGKLQHLENELTHDIITKFLENEDRRSASLHLPKLSITGTYDLKSVLGQLGITKVFSNGADLSGVTEEAPLKLSKAVHKAVLTIDEKGTEAAGAMFLEGSLRGIPPEVKFNKPFVFLMIEQNTKSPLFMGKVVNPTQK
notes: mature

molecular target: T1, human kallikrein 14 (hK14); experiment: progress curve; * [I0]/[E0] < 5 * SI
Experimental: The association rate constants for interactions of hK14, with different inhibitors were determined under pseudo-first order conditions using the progress curve method (Morrison and Walsh, 1988). Under these conditions, a fixed amount of enzyme (2 nM) was mixed with different concentrations of inhibitor (0-80 nM) and an excess of substrate (20 μM). Reactions were performed in reaction buffer (50 mM Tris pH 7.5, 150 mM NaCl, 0.05% Triton X-100, 0.01% BSA) at 37° C. for 45 min and the rate of product formation was measured using a FLₓ800 fluorescence 96-well microplate reader (Biotek, USA) Inhibition is considered to be irreversible over the course of reaction and the progression of enzyme activity is expressed as product formation (P), beginning at a rate (vz) and is inhibited over time (t) at a first-order rate (kobs), where the rate constant is only dependent on the inhibitor concentration.

kon	Binder
65000 M⁻¹ s⁻¹	B1
22000 M⁻¹ s⁻¹	B2
7600 M⁻¹ s⁻¹	B3
3200 M⁻¹ s⁻¹	B4
74000 M⁻¹ s⁻¹	B5
42000 M⁻¹ s⁻¹	B6

molecular target: human kallikrein 6 (hK6) (human, UniProt Q92876 22-244); experiment: cell-based or functional assay

% Inhibition	Binder
0%	B7
0%	B8
0%	B9
0%	B3
20%	B4

molecular target: T2, human kallikrein 8 (hK8); experiment: cell-based or functional assay

% Inhibition	Binder
10%	B7
0%	B8
0%	B9
0%	B3
0%	B4

molecular target: human kallikrein 4 (hK4) (human, UniProt Q9Y5K2 31-254, limits assumed); experiment: cell-based or functional assay
Sequence (Q9Y5K2 31-254 limits assumed): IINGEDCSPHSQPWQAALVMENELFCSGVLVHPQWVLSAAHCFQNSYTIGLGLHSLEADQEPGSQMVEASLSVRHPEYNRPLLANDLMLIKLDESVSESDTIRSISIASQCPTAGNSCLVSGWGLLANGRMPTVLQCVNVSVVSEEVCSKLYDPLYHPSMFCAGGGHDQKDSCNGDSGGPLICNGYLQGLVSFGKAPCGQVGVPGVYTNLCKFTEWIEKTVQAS

% Inhibition	Binder
75%	B7
45%	B8
0%	B9
0%	B3
0%	B4

molecular target: T3, human kallikrein 5 (hK5); experiment: cell-based or functional assay

% Inhibition	Binder
10%	B7
15%	B8
10%	B9
5%	B3
50%	B4

molecular target: human kallikrein 2 (hK2) (human, UniProt P20151 25-261); experiment: cell-based or functional assay

% Inhibition	Binder
0%	B7
25%	B8
0%	B9
25%	B3
15%	B4

molecular target: thrombin; experiment: cell-based or functional assay

% Inhibition	Binder
0%	B10
0%	B1
0%	B5

molecular target: human chymotrypsin (Chtr) (human, UniProt P17538 19-263); experiment: cell-based or functional assay
Sequence (P17538 19-263): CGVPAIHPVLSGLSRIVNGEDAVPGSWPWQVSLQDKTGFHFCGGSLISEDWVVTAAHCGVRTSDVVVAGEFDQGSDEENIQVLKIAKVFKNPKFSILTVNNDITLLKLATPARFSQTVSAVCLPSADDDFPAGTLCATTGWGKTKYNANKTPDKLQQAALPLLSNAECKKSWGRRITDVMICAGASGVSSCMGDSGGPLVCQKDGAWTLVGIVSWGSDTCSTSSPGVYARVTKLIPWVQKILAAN

% Inhibition	Binder
17%	B10
84%	B1
83%	B5

molecular target: urokinase plasminogen activator (uPA) (UniProt P00749 21-431, limits assumed); experiment: cell-based or functional assay

% Inhibition	Binder
0%	B10
0%	B1
0%	B5

molecular target: T4, human neutrophil elastase (HNE); experiment: cell-based or functional assay

% Inhibition	Binder
0%	B10
0%	B1
0%	B5

molecular target: T1, human kallikrein 14 (hK14); experiment: cell-based or functional assay

% Inhibition	Binder
100%	B10
100%	B1
100%	B5

molecular target: human plasma kallikrein (PK) (human, UniProt P03952 20-638); experiment: cell-based or functional assay
Sequence (P03952 20-638 limits assumed): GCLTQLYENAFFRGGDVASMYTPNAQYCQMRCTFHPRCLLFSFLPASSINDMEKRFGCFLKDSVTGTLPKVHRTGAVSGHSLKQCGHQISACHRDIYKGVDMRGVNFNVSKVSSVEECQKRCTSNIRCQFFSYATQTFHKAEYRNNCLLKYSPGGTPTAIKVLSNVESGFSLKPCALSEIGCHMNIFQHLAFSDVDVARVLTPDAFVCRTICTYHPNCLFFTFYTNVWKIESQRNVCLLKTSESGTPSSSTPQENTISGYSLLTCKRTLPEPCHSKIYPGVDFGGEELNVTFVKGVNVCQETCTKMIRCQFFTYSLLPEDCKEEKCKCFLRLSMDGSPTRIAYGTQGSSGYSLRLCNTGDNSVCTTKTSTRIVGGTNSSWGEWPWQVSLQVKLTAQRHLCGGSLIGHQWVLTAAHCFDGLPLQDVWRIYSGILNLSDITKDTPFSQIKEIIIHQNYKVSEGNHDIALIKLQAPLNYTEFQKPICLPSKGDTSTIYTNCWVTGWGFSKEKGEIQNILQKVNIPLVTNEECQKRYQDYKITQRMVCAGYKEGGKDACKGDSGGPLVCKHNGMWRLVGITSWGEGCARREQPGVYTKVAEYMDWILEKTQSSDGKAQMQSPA

% Inhibition	Binder
100%	B10
0%	B1
0%	B5

molecular target: T1, human kallikrein 14 (hK14); experiment: residual hK14 activity against [I0]/[E0]
Experimental: SI values of rAAT, rACT, and their variants were determined with hK14 incubating the protease with varying concentrations of inhibitor. After an incubation of 4 hours at 37° C. in reaction buffer (50 mM Tris, pH 7.5, 150 mM NaCl, 0.05% Triton X-100, 0.01% BSA), the residual activity was detected by the addition of fluorescent substrate (Boc-Val-Pro-Arg-AMC). Fluorescence was measured with excitation at 340 nm (±15) and emission at 485 nm (±10) in black 96 well plates using a microplate fluorescence reader FLₓ800 (Bio-Tek Instruments, Inc.). The SI value corresponds to the abscissa intercept of the linear regression analysis of fractional velocity (velocity of inhibited enzyme reaction (vi)/velocity of uninhibited enzyme reaction (v₀)) vs. the molar ratio of the inhibitor to enzyme ([I₀]/[E₀]).

SI (stoichiometry of inhibition)	Binder
2.3	B10
4.8	B1
11.7	B2
13.8	B3
13.3	B4
2.8	B5
9	B6
